The target of this assay is T1, bile salt export pump (BSEP), purified, with C-terminal affinity tags (human, UniProt O95342 1-1321).
T1 construct: bile salt export pump (BSEP, ABCB11), human; construct pSGP18-2μ-BSEP; also called purified BSEP; pSGP18-2μ-BSEP; not shown: His tag (inferred from the removal of the tags on Ni-NTA), C-terminal, kept
As to the kind of experiment: pull-down; Strep-tagged partner immobilised on Strep-Tactin resin, detergent-solubilised purified BSEP added for 30 min at 4°C; 50 mM sodium phosphate pH 7, 150 mM NaCl, 20% glycerol, 0.022% DDM; immunoblot against BSEP and Strep-tag II. The note with it: both partners purified. (In general: A western blot detects proteins with antibodies after separation by electrophoresis.)

T1 sequence (O95342 whole entry): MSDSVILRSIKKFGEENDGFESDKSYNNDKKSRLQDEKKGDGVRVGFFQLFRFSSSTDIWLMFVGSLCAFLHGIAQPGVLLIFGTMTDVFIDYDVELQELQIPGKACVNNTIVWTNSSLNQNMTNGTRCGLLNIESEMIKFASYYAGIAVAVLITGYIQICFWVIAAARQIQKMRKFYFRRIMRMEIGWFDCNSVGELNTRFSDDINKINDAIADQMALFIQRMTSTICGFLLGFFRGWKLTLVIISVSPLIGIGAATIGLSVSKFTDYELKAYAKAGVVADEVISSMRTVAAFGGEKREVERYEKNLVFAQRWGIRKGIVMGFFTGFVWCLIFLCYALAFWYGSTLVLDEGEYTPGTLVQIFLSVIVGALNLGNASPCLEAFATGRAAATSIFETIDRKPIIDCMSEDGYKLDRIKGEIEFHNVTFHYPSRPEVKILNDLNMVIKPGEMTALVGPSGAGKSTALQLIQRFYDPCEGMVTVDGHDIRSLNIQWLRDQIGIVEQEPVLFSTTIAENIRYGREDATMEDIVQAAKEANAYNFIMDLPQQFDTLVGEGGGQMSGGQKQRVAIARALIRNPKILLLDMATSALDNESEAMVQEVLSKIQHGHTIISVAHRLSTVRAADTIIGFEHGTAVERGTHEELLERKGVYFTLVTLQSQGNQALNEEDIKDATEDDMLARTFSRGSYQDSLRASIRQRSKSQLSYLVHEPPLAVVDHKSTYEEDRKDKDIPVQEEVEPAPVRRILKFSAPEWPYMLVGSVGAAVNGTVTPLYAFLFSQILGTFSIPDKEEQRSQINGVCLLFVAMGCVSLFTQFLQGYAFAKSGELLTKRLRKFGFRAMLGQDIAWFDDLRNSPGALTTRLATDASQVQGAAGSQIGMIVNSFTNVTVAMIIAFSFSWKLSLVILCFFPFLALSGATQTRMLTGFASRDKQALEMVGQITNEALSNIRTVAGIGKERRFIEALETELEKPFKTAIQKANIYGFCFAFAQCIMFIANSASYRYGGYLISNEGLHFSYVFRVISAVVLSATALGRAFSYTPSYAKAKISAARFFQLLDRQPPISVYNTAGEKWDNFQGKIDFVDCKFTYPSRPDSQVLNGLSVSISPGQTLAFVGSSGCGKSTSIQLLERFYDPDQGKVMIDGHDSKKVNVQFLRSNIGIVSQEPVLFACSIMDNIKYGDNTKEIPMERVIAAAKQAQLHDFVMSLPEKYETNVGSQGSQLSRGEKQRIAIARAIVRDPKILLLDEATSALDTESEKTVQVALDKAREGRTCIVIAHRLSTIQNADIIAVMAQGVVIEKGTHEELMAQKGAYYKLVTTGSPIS

B1: BACS_(77-690), Strep-tagged, purified (domain or fragment, human, UniProt Q9Y2P5-1 77-690, looked up)
chain: PARLPPGLRWLPADVIFLAKILHLGLKIRGCLSRQPPDTFVDAFERRARAQPGRALLVWTGPGAGSVTFGELDARACQAAWALKAELGDPASLCAGEPTALLVLASQAVPALCMWLGLAKLGCPTAWINPHGRGMPLAHSVLSSGARVLVVDPDLRESLEEILPKLQAENIRCFYLSHTSPTPGVGALGAALDAAPSHPVPADLRAGITWRSPALFIYTSGTTGLPKPAILTHERVLQMSKMLSLSGATADDVVYTVLPLYHVMGLVVGILGCLDLGATCVLAPKFSTSCFWDDCRQHGVTVILYVGELLRYLCNIPQQPEDRTHTVRLAMGNGLRADVWETFQQRFGPIRIWEVYGSTEGNMGLVNYVGRCGALGKMSCLLRMLSPFELVQFDMEAAEPVRDNQGFCIPVGLGEPGLLLTKVVSQQPFVGYRGPRELSERKLVRNVRQSGDVYYNTGDVLAMDREGFLYFRDRLGDTFRWKGENVSTHEVEGVLSQVDFLQQVNVYGVCVPGCEGKVGMAAVQLAPGQTFDGEKLYQHVRAWLPAYATPHFIRIQDAMEVTSTFKLMKTRLVREGFNVGIVVDPLFVLDNRAQSFRPLTAEMYQAVCEGTWRL
notes: bile acyl-CoA synthetase (BACS, SLC27A5), human, residues 77-690, without the N-terminal membrane anchor, in pET-51b(+); vector pET-51b(+); also called BACS lacking its N-terminal membrane anchor; bile acyl-CoA synthetase; source: E. coli Rosetta (DE3) pLysS, purified (Strep-Tactin)
In the case of B1, the binding result is given as “binds”.
